# Source: patent publication US20060177440A1 (published 2006)
# T1: human Rh(D) antigen (human, UniProt Q02161 2-417)
# T1 construct: whole, on cells; also called wt; wild-type Rh(D) on Rh(D)-positive RBCs
# T1 sequence (looked up): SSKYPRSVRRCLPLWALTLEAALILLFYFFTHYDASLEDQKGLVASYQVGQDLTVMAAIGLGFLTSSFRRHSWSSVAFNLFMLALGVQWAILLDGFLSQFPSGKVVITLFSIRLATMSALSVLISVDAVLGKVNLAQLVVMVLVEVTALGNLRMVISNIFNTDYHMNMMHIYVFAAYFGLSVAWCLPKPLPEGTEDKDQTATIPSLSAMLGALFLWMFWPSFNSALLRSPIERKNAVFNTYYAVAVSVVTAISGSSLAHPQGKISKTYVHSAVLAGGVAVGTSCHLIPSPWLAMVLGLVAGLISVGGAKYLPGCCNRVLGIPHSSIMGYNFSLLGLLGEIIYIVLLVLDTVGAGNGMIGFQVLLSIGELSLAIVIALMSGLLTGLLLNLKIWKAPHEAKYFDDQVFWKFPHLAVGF
# Molecular target: T1, human Rh(D) antigen
# Test: Fab/phage agglutination (anti-M13)
# Method: Following a one-hour incubation at 37° C., the RBCs were washed 3 times with 2 ml of cold PBS to remove unbound antibody. The resulting RBC pellets were resuspended in 100 μl of a 10 μg/ml solution of sheep anti-M13 antibody (5 Prime-3 Prime, Boulder, Colo.) for Fab/phage experiments or goat anti-human κ or λ light chain antibody (Tago, Burlingame, Calif.) for γ₁κ or γ₁λ soluble Fab experiments, respectively. The RBC suspensions were transferred to the round-bottomed wells of a 96-well microplate and left undisturbed for […]. Negative reactions show sharp ˜2 millimeter diameter RBC spots whereas the RBCs in agglutinated wells form a thin carpet coating the entire floor of the well (Siegel et al., 1997, J. Immunol. Meth. 206:73). Agglutination titers for recombinant antibodies were determined by performing serial 2-fold dilutions in 1% BSA/PBS.
# Fifty-six randomly chosen colonies were selected, and monoclonal Fab/phage preparations were separately produced from each of these individual colonies, using the methods described herein in Example 1. Rh(D) specificity was determined by indirect agglutination using anti-M13 antibody, as described herein in Examples 1 and 2.
row,Binder,binding result
1,"SH13 (Fab, V domains shown, Fab/phage) VH: EVQLLESGGGVVQPGRSLRLSCAASGFTFSSYGMHWVRQAPGKGLEWVAVVYYDGSNKHYSDSVKGRFTISRDNSKNTLYLQMDSLRAEDTAVYYCARERNFRSGYSRYYYGMDVWGPGTTVTVSS VL: not shown",binds
2,"SH56 (Fab, V domains shown, Fab/phage) VH: EVQLLESGGGVVQPGRSLRLSCAASGFTFSSYGMHWVRQAPGKGLEWVAVVYYDGSNKHYSDSVKGRFTIFRDNSKNTLYLQMDSLRAEDTAVYYCARERNFRSGYSRYYYGMDVWGPGTTVTVSS VL: AELTQSPSSLSASVGDRVTITCRASQSISRYLNWYQQKPGKAPKLLIYAASSLQSGVPSRFSGSGSGTDFALTISSLLPEDFATYYCQQGYSTPPYSFGQGTKLEIKR",binds
3,"SH17 (Fab, V domains shown, Fab/phage) VH: EVQLLESGGGLVQPGGSLRLSCGASGIPFVSSWMAWVRQAPGKGLEWVANIKQDGSKKNYVDSVEGRFTISRDNAKNSLYLQMDSLRAEDTRIYYCARDSLTCFDYWGQGALVTVSS VL: AELQDPVVSVALGQTVRITCQGDGLRSYYASWYQQKPGQAPKLVMYGRNNRPSGIPGRFSGSSSGQTAALTITGTQAEDEADYYCQSRATSGNPVVFGGGTKLTVL",binds
